Results as given in patent US10584153B2, “Treatment of damaged nerve with PTEN inhibitor” (TISSUEGENE, INC., priority 2013, dated 2020).
Where “and” joins values, the source holds several entries; their conditions need not be identical. Equal values may be shown once. No end group written: not given here.

How the values were obtained:
PTEN [1] = molecular target: T1, PTEN (Homo sapiens, UniProt P60484); experiment: In vitro PTEN activity assay / IC50 assay (Malachite Green, C8-PIP3 liposome); format: biochemical; parameters: purchased R&D Systems, Inc; conditions: 10 μM peptide
Target sequence in this assay (P60484 whole entry): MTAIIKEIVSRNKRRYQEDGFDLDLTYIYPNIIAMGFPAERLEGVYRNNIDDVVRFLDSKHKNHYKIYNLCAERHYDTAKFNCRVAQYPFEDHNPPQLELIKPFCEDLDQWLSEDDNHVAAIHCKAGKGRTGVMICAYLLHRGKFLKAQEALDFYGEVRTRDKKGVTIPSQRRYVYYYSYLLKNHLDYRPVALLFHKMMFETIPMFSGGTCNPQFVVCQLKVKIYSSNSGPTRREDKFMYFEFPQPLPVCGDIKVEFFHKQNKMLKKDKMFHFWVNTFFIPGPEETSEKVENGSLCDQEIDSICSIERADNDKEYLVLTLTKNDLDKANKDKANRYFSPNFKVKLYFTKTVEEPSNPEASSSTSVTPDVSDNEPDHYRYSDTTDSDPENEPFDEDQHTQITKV
Text: In vitro PTEN activity assay was designed to check PTEN lipid phosphatase activity to convert phosphatidylinositol triphosphate (PIP3) to phosphatidylinositol diphosphate (PIP2) and produce phosphate ion (Pi). 1,2-dioctanoyl-sn-glycero-3-phospho-(1′-myo-inositol-3,4,5-triphosphate) (C8-PIP3) was used as PTEN substrate and prepared as lipid vesicle (liposome) with other phospholipids because PTEN as lipid phosphatase is an interfacial enzyme. For liposome preparation, C8-PIP3, DOPS (1,2-dioeloyl-sn-glycero-phosphoserine) and DOPC (1,2-dioeloyl-sn-glycero-phosphocholine) were mixed together with 800 μL of liposome buffer (50 mM Tris, 100 mM NaCl, 10 mM MgCl2, 5 mM DTT, pH=8.0) to final concentration of 0.1 mM of C8-PIP3, 0.25 mM DOPS and 0.25 mM DOPC. The lipid mixture was then sonicated at 4° C. for 30 min to produce liposome. After sonication, the liposome solution was briefly centrifuged to remove remaining lipids.
For PTEN activity assay, 20 ng of recombinant human PTEN protein was mixed with 40 μL of completed liposome solution. […] After incubation, the inorganic phosphate ions produced by PTEN protein was detected using Malachite Green phosphate detection kit. […]
All data represent experimentation in triplicate and the IC50 values were calculated by Prism 5 software (GraphPad Software).

PTEN [2] = molecular target: T1, PTEN; conditions: from Odriozola et al.; read-out: IC50, in vitro PTEN (Odriozola peptides); cited from earlier work
Target sequence in this assay (P60484 whole entry, species assumed): as the sequence (P60484 whole entry) above

[3] = test system: Akt protein phosphorylation in PC12 cells (PI3K-Akt signaling pathway); experiment: Akt activation (phosphorylation) level by Western blot in PC12 cells; format: cell-based, rat; conditions: endogenous or overexpressed PTEN, TGN-1 10 and 100 μM, TGN-4 10 μM, 24 hr
Experimental: PC12 rat pheochromocytoma cells were seeded to 6-well plate (0.6×10^6 cells/well) and cultured with DMEM media containing 7.5% FBS and 7.5% Goat Serum. After the cell confluency reached around 60˜70%, NGF (nerve growth factor, 50 ng/mL) was added to the PC12 cells for differentiation and incubated for 5 more days. Then, fresh media containing different amounts of TGN peptides in DMSO solution were added to each well and incubated further for 24 hr. For PTEN overexpession, PC12 cells were seeded in 6-well plate (1.0×10^6 cells/well) and differentiated with NGF (50 ng/mL) as above. DNA-Lipofectamine 2000 mixture was prepared for each well of cells to be transfected by firstly adding 2˜2.5 μg of human PTEN c-DNA into 500 μl of Opti-MEM. 3.75-8.75 μl of Lipofectamine 2000™ reagent was added next to the above diluted DNA solution, mixed gently and incubated for 25 minutes at room temperature. Growth media of PC12 cells in 6-well plate was exchanged with fresh media and 500 μl of the DNA-Lipofectamine 2000 complex was added to each well for transfection. Transfected cells were incubated at 37° C. in 5.0% CO2 incubator for 24-48 hours post-transfection before assaying for transgene expression.
After culturing, PC12 cells were collected from the 6-well plate and centrifuged down with bench-top centrifuger to make cell pellet (13,000 rpm, 5 min at RT). […]

Substance | Inhibitory effect on in vitro PTEN activity (PTEN [1]) | IC50 (PTEN [2]) | Activation (phosphorylation) level of Akt protein [3]
RRRRRRRR-DEHDTEYTPDYRQETHFNSQPTDKSDVI-amide (RRRRRRRRDEHDTEYTPDYRQETHFNSQPTDKSDVI-NH2) [TGN-5, TGN-2/TGN-3 scrambled peptide] | no significant inhibition | – | –
Cp23: synthetic phosphomimic peptide of Odriozola et al. encompassing PTEN AA368-390, no phosphorylated Serine residues (DVSDNEPDHYRYSDTTDSDPENE; UniProt P60484 368-390, looked up, fragment) | – | ~1030 µM and 1030 µM | –
RRRRRRRR-SDDEYTDNPDSRYVSDTPVDTEH-amide (RRRRRRRRSDDEYTDNPDSRYVSDTPVDTEH-NH2) [TGN-4, scrambled peptide of TGN-1 peptide, negative control] | no significant inhibition | – | did not increase the activation level of AKT protein
